# B1: Zyxin (Homo sapiens), Q15942 (parent)
# chain: MAAPRPSPAISVSVSAPAFYAPQKKFGPVVAPKPKVNPFRPGDSEPPPAPGAQRAQMGRVGEIPPPPPEDFPLPPPPLAGDGDDAEGALGGAFPPPPPPIEESFPPAPLEEEIFPSPPPPPEEEGGPEAPIPPPPQPREKVSSIDLEIDSLSSLLDDMTKNDPFKARVSSGYVPPPVATPFSSKSSTKPAAGGTAPLPPWKSPSSSQPLPQVPAPAQSQTQFHVQPQPQPKPQVQLHVQSQTQPVSLANTQPRGPPASSPAPAPKFSPVTPKFTPVASKFSPGAPGGSGSQPNQKLGHPEALSAGTGSPQPPSFTYAQQREKPRVQEKQHPVPPPAQNQNQVRSPGAPGPLTLKEVEELEQLTQQLMQDMEHPQRQNVAVNELCGRCHQPLARAQPAVRALGQLFHIACFTCHQCAQQLQGQQFYSLEGAPYCEGCYTDTLEKCNTCGEPITDRMLRATGKAYHPHCFTCVVCARPLEGTSFIVDQANRPHCVPDYHKQYAPRCSVCSEPIMPEPGRDETVRVVALDKNFHMKCYKCEDCGKPLSIEADDNGCFPLDGHVLCRKCHTARAQT
# partner: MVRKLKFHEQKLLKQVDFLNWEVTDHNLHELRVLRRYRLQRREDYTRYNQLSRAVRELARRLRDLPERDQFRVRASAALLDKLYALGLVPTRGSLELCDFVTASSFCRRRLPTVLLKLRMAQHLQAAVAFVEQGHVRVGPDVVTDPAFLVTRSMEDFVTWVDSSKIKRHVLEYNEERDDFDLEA
# B2: Cyclin-dependent kinase 4 inhibitor C (Homo sapiens), P42773 (parent)
# chain: MAEPWGNELASAAARGDLEQLTSLLQNNVNVNAQNGFGRTALQVMKLGNPEIARRLLLRGANPDLKDRTGFAVIHDAARAGFLDTLQTLLEFQADVNIEDNEGNLPLHLAAKEGHLRVVEFLVKHTASNVGHRNHKGDTACDLARLYGRNEVVSLMQANGAGGATNLQ
# partner: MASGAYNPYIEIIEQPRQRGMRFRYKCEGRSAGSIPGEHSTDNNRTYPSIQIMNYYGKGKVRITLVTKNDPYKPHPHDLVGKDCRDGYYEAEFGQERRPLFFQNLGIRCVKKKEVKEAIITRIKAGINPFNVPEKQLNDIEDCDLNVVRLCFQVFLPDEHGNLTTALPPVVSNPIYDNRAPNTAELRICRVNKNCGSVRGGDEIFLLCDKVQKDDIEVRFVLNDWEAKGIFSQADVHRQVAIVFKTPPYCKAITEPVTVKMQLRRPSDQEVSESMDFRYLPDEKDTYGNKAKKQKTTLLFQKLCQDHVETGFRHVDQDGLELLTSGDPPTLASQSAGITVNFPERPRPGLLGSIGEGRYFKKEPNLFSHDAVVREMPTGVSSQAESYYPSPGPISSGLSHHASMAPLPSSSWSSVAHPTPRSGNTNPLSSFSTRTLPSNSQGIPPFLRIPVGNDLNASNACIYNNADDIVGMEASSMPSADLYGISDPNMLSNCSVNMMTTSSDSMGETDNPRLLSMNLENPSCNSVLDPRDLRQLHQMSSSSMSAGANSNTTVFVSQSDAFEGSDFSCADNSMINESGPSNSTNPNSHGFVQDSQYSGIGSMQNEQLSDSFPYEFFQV
# B3: Microtubule-associated tumor suppressor candidate 2 (Homo sapiens), Q5JR59-3 (parent)
# chain: MGHCCCKPYNCLQCLDKTNESALVKEKELSIELANIRDEVAFHTAKCEKLQKEKEELERRFEDEVKRLGWQQQAELQELEERLQLQFEAEMARLQEEHGDQLLSIRCQHQEQVEDLTASHDAALLEMENNHTVAITILQDDHDHKVQELMSTHELEKKELEENFEKLRLSLQDQVDTLTFQSQSLRDRARRFEEALRKNTEEQLEIALAPYQHLEEDMKSLKQVLEMKNQQIHEQEKKILELEKLAEKNIILEEKIQVLQQQNEDLKARIDQNTVVTRQLSEENANLQEYVEKETQEKKRLSRTNEELLWKLQTGDPTSPIKLSPTSPVYRGSSSGPSSPARVSTTPR
# partner: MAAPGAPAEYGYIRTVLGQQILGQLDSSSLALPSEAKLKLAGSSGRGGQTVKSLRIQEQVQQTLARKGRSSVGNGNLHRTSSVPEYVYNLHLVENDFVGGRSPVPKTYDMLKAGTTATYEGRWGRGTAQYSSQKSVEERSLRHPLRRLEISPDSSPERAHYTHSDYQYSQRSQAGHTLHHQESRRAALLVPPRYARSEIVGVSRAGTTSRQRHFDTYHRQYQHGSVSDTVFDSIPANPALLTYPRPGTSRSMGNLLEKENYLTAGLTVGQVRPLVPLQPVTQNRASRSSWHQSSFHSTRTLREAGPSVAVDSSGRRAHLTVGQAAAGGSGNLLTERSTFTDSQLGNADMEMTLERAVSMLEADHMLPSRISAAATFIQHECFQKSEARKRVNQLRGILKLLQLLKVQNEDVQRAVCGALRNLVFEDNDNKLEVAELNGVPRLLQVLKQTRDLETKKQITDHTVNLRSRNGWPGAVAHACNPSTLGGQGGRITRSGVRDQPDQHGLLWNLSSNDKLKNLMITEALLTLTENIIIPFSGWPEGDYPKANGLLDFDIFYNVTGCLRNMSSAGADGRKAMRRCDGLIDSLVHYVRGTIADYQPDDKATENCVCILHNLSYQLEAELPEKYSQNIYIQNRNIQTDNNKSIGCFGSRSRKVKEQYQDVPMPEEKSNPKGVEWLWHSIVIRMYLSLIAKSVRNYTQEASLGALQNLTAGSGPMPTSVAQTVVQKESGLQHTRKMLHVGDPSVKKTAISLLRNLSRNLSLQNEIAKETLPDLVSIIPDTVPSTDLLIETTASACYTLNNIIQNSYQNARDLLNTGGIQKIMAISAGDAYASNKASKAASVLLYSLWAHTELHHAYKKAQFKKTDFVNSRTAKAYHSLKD
# B4: Isoform Long of Autophagy protein 5 (Homo sapiens), Q9H1Y0-1 (parent)
# chain: MTDDKDVLRDVWFGRIPTCFTLYQDEITEREAEPYYLLLPRVSYLTLVTDKVKKHFQKVMRQEDISEIWFEYEGTPLKWHYPIGLLFDLLASSSALPWNITVHFKSFPEKDLLHCPSKDAIEAHFMSCMKEADALKHKSQVINEMQKKDHKQLWMGLQNDRFDQFWAINRKLMEYPAEENGFRYIPFRIYQTTTERPFIQKLFRPVAADGQLHTLGDLLKEVCPSAIDPEDGEKKNQVMIHGIEPMLETPLQWLSEHLSYPDNFLHISIIPQPTD
# partner: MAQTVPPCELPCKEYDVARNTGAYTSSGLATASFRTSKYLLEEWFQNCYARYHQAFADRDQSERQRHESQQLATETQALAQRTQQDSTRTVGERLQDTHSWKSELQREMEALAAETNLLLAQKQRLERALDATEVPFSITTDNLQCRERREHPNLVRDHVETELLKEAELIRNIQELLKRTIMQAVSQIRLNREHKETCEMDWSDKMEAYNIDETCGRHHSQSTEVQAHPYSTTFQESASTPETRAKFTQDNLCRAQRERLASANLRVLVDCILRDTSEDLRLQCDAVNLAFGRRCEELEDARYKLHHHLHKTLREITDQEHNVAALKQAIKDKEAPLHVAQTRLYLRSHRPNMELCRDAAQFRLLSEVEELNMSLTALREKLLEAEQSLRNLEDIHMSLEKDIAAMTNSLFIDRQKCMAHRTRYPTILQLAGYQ
# B5: KAT8 regulatory NSL complex subunit 1 (Homo sapiens), Q7Z3B3 (parent)
# chain: MAAMAPALTDAAAEAHHIRFKLAPPSSTLSPGSAENNGNANILIAANGTKRKAIAAEDPSLDFRNNPTKEDLGKLQPLVASYLCSDVTSVPSKESLKLQGVFSKQTVLKSHPLLSQSYELRAELLGRQPVLEFSLENLRTMNTSGQTALPQAPVNGLAKKLTKSSTHSDHDNSTSLNGGKRALTSSALHGGEMGGSESGDLKGGMTNCTLPHRSLDVEHTTLYSNNSTANKSSVNSMEQPALQGSSRLSPGTDSSSNLGGVKLEGKKSPLSSILFSALDSDTRITALLRRQADIESRARRLQKRLQVVQAKQVERHIQHQLGGFLEKTLSKLPNLESLRPRSQLMLTRKAEAALRKAASETTTSEGLSNFLKSNSISEELERFTASGIANLRCSEQAFDSDVTDSSSGGESDIEEEELTRADPEQRHVPLRRRSEWKWAADRAAIVSRWNWLQAHVSDLEYRIRQQTDIYKQIRANKGLIVLGEVPPPEHTTDLFLPLSSEVKTDHGTDKLIESVSQPLENHGAPIIGHISESLSTKSCGALRPVNGVINTLQPVLADHIPGDSSDAEEQLHKKQRLNLVSSSSDGTCVAARTRPVLSCKKRRLVRPNSIVPLSKKVHRNSTIRPGCDVNPSCALCGSGSINTMPPEIHYEAPLLERLSQLDSCVHPVLAFPDDVPTSLHFQSMLKSQWQNKPFDKIKPPKKLSLKHRAPMPGSLPDSARKDRHKLVSSFLTTAKLSHHQTRPDRTHRQHLDDVGAVPMVERVTAPKAERLLNPPPPVHDPNHSKMRLRDHSSERSEVLKHHTDMSSSSYLAATHHPPHSPLVRQLSTSSDSPAPASSSSQVTASTSQQPVRRRRGESSFDINNIVIPMSVAATTRVEKLQYKEILTPSWREVDLQSLKGSPDEENEEIEDLSDAAFAALHAKCEEMERARWLWTTSVPPQRRGSRSYRSSDGRTTPQLGSANPSTPQPASPDVSSSHSLSEYSHGQSPRSPISPELHSAPLTPVARDTPRHLASEDTRCSTPELGLDEQSVQPWERRTFPLAHSPQAECEDQLDAQERAARCTRRTSGSKTGRETEAAPTSPPIVPLKSRHLVAAATAQRPTHR
# partner: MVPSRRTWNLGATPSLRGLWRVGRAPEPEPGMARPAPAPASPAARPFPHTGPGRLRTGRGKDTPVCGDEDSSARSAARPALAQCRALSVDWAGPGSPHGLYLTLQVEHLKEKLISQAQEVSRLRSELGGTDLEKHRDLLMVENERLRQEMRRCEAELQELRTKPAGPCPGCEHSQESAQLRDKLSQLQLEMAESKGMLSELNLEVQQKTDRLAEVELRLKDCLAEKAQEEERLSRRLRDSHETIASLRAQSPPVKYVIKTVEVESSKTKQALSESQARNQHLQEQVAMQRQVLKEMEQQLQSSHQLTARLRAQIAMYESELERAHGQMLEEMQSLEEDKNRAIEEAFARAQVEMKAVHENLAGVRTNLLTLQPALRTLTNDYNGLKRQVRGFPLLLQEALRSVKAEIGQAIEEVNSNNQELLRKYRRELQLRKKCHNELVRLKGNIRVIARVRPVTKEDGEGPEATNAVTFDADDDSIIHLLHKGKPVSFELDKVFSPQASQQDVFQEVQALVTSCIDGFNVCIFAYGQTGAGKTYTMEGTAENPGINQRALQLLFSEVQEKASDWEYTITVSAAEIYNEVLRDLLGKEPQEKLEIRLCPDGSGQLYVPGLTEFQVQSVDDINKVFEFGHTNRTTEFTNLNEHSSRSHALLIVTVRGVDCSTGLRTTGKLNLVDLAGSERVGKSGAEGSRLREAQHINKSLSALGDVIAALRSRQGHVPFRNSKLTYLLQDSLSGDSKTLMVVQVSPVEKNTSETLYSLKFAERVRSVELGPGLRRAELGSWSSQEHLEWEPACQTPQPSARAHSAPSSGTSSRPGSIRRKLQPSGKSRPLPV
# Variants of: B1
# Details: with imp3_human IMP3, Q9NV31
row,effect of a mutation on the interaction,Variant
1,with no effect,R563Q

# Variants of: B2
# Details: with rel_human REL
row,effect of a mutation on the interaction,Variant
1,disrupting interaction strength,V31L
2,with no effect,T69A

# Variants of: B3
# Details: with pkp2_human PKP2, Q99959
row,effect of a mutation on the interaction,Variant
1,with no effect,A89V

# Variants of: B4
# Details: with tekt4_human TEKT4, Q8WW24
row,effect of a mutation on the interaction,Variant
1,with no effect,K58M

# Variants of: B5
# Details: with kifc3_human KIFC3, Q9BVG8
row,effect of a mutation on the interaction,Variant
1,disrupting interaction strength,K104T

# — IntAct's records for PubMed 31515488
